Test results as given in the supplement of paper PMC10724198.
± gives the standard deviation of the averaged measurements.

tested on: Saccharomyces cerevisiae; test: protein stability index of tFT-peptide fusion (C-terminal peptide) (PSI (0-1 scale)); higher = more stable (slower turnover); settings: genetic background: cdc34-1; temperature: 37 C
Description: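 MPS profiling in S. cerevisiae of the tFT-X12 degron library: putative degron peptides plus stable controls, 12 aa, fused to the C-terminus of a sfGFP-mCherry timer. Cells are FACS-sorted into 8 mCherry/sfGFP bins and deep-sequenced. PSI runs from 0 (unstable) to 1 (stable). Backgrounds are wild type, das1Δ and doa10Δ at 30 °C, and wild type, das1Δ, cdc34-1 and cdc53-1 at 37 °C; 2-3 technical replicates each.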
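Note: PSI is a weighted mean of sequencing reads over stability bins, variants kept only with over 10 reads, mCherry proximal and sfGFP distal, peptide attached via GGGS linker.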

Going from VVFSLLLWLFIS to VVGLSLLFSGGV, the protein stability index rises from 0.256 ± 0.022 to 0.687 ± 0.011.

VVQCRFPTPCVV and VVSLGGWCLYIY are within error of each other in protein stability index: 0.486 ± 0.035 for the first, 0.423 ± 0.061 for the second.

First: VVVFGWIGYLYL
Second: VVVHFVLVCSTS
The protein stability index of the first is higher: 0.366 ± 0.028 for the first, 0.0899 ± 0.0074 for the second.

Going from VWFLLFVVWCGS to VWLAWCIVGGLG, the protein stability index rises from 0.212 ± 0.01 to 0.472 ± 0.0083.

Compared with VWVAWLGGAILA, VYCCVRSLRVAI is higher in protein stability index: 0.149 ± 0.021 for the first, 0.553 ± 0.0082 for the second.

Going from VYVRYYVRVVVI to WCFFFVGCCCFG, the protein stability index rises from 0.0256 ± 0.0012 to 0.557 ± 0.044.

WCFGSLLIRFSL and WDLYFSVVYRVV are within error of each other in protein stability index: 0.416 ± 0.057 for the first, 0.35 ± 0.04 for the second.

First: WFFPVSPPVMAS
Second: WFLFVLCAWGFF
The protein stability index of the first is lower: 0.181 ± 0.027 for the first, 0.295 ± 0.026 for the second.

WFLLSLSSFVSS and WFSMSRLWVFYS are within error of each other in protein stability index: 0.427 ± 0.03 for the first, 0.415 ± 0.043 for the second.

First: WFSRCVSLGLCW
Second: WFSVRQLVFVSG
The protein stability index of the first is higher: 0.2808 ± 0.0017 for the first, 0.119 ± 0.011 for the second.

Compared with WISVRIFISCFF, WLCLAVLVRFPC is higher in protein stability index: 0.177 ± 0.0059 for the first, 0.273 ± 0.0054 for the second.

Compared with WQIGIYILQGLA, WSCVGLWGRFCC is higher in protein stability index: 0.271 ± 0.03 for the first, 0.663 ± 0.033 for the second.

WSISFGLLVCWV and WVFVVWFVFVVG are within error of each other in protein stability index: 0.27 ± 0.045 for the first, 0.242 ± 0.022 for the second.

Going from WVGGVLLSVVGG to WVRLGRSWTTVG, the protein stability index rises from 0.158 ± 0.014 to 0.68 ± 0.054.

Going from WVRLWGVLEAQG to WVSFYLLFFFSF, the protein stability index rises from 0.349 ± 0.013 to 0.459 ± 0.007.

First: YFFFPILCFCFF
Second: YFLFLRLVFLFF
The protein stability index of the first is higher: 0.439 ± 0.03 for the first, 0.217 ± 0.015 for the second.

First: YILLRWVNLSCL
Second: YPVAWSSAIIIR
The protein stability index of the first is higher: 0.524 ± 0.012 for the first, 0.438 ± 0.041 for the second.

Compared with YQKIARVSLAVS, YVIGLLFVVSGV is lower in protein stability index: 0.466 ± 0.015 for the first, 0.265 ± 0.013 for the second.

Sequence YYKGGYLYLRLS has a protein stability index of 0.398 ± 0.031.

same assay, conditions: genetic background: cdc53-1; temperature: 37 C

Going from VVFSLLLWLFIS to VVGLSLLFSGGV, the protein stability index rises from 0.405 ± 0.024 to 0.755 ± 0.021.

VVQCRFPTPCVV and VVSLGGWCLYIY are within error of each other in protein stability index: 0.485 ± 0.033 for the first, 0.4605 ± 0.0016 for the second.

Going from VVVFGWIGYLYL to VVVHFVLVCSTS, the protein stability index falls from 0.499 ± 0.05 to 0.237 ± 0.057.

Compared with VWFLLFVVWCGS, VWLAWCIVGGLG is higher in protein stability index: 0.282 ± 0.024 for the first, 0.5494 ± 0.0026 for the second.

Going from VWVAWLGGAILA to VYCCVRSLRVAI, the protein stability index rises from 0.188 ± 0.012 to 0.677 ± 0.047.

Compared with VYVRYYVRVVVI, WCFFFVGCCCFG is higher in protein stability index: 0.0406 ± 0.00046 for the first, 0.59 ± 0.03 for the second.

Going from WCFGSLLIRFSL to WDLYFSVVYRVV, the protein stability index rises from 0.446 ± 0.016 to 0.484 ± 0.017.

Going from WFFPVSPPVMAS to WFLFVLCAWGFF, the protein stability index rises from 0.1945 ± 0.00051 to 0.339 ± 0.0033.

Going from WFLLSLSSFVSS to WFSMSRLWVFYS, the protein stability index rises from 0.415 ± 0.11 to 0.637 ± 0.018.

First: WFSRCVSLGLCW
Second: WFSVRQLVFVSG
The protein stability index of the first is higher: 0.3093 ± 0.0024 for the first, 0.146 ± 0.018 for the second.

WISVRIFISCFF and WLCLAVLVRFPC are within error of each other in protein stability index: 0.269 ± 0.02 for the first, 0.274 ± 0.018 for the second.

First: WQIGIYILQGLA
Second: WSCVGLWGRFCC
The protein stability index of the first is lower: 0.316 ± 0.0064 for the first, 0.748 ± 0.018 for the second.

Going from WSISFGLLVCWV to WVFVVWFVFVVG, the protein stability index falls from 0.322 ± 0.0049 to 0.3112 ± 0.00051.

Going from WVGGVLLSVVGG to WVRLGRSWTTVG, the protein stability index rises from 0.413 ± 0.041 to 0.736 ± 0.013.

Going from WVRLWGVLEAQG to WVSFYLLFFFSF, the protein stability index rises from 0.445 ± 0.022 to 0.4959 ± 0.0028.

Going from YFFFPILCFCFF to YFLFLRLVFLFF, the protein stability index falls from 0.43 ± 0.012 to 0.222 ± 0.032.

First: YILLRWVNLSCL
Second: YPVAWSSAIIIR
The protein stability index of the first is higher: 0.587 ± 0.013 for the first, 0.4531 ± 0.0036 for the second.

Compared with YQKIARVSLAVS, YVIGLLFVVSGV is lower in protein stability index: 0.512 ± 0.02 for the first, 0.366 ± 0.025 for the second.

YYKGGYLYLRLS was tested, and the protein stability index was 0.4395 ± 0.0037.

same assay, conditions: genetic background: das1 deletion; temperature: 30 C

Going from VVFSLLLWLFIS to VVGLSLLFSGGV, the protein stability index rises from 0.316 ± 0.047 to 0.644 ± 0.015.

VVQCRFPTPCVV and VVSLGGWCLYIY are within error of each other in protein stability index: 0.372 ± 0.03 for the first, 0.416 ± 0.032 for the second.

Compared with VVVFGWIGYLYL, VVVHFVLVCSTS is lower in protein stability index: 0.311 ± 0.044 for the first, 0.141 ± 0.026 for the second.

Going from VWFLLFVVWCGS to VWLAWCIVGGLG, the protein stability index rises from 0.217 ± 0.022 to 0.386 ± 0.024.

Compared with VWVAWLGGAILA, VYCCVRSLRVAI is higher in protein stability index: 0.2 ± 0.029 for the first, 0.471 ± 0.035 for the second.

First: VYVRYYVRVVVI
Second: WCFFFVGCCCFG
The protein stability index of the first is lower: 0.0781 ± 0.04 for the first, 0.462 ± 0.034 for the second.

WCFGSLLIRFSL and WDLYFSVVYRVV are within error of each other in protein stability index: 0.453 ± 0.04 for the first, 0.403 ± 0.015 for the second.

Going from WFFPVSPPVMAS to WFLFVLCAWGFF, the protein stability index rises from 0.202 ± 0.032 to 0.263 ± 0.013.

First: WFLLSLSSFVSS
Second: WFSMSRLWVFYS
The protein stability index of the first is lower: 0.363 ± 0.023 for the first, 0.619 ± 0.028 for the second.

WFSRCVSLGLCW gave a protein stability index of 0.29 ± 0.019.
